Where a chain is given by its changes, count along the chain named. In names and notes the source's numbering stands.

B1: H240-Kn061/H240-Hl071/L73-k0 variant with Y234E in H240-Kn061 (antibody, human IgG1, kappa)
heavy 1: QDQLVQSGAEVKKPGASVKVSCKASGFNIKDTYIQWVRQAPGQGLEWMGRIDPLRKQTKYREKFEGRVTITADTSTNTAYMELSSLRSEDTAVYYCVRSGREFDYWGQGTLVTVSSASTKGPSVFPLAPSSKSTSGGTAALGCLVKDYFPEPVTVSWNSGALTSGVHTFPAVLQSSGLYSLSSVVTVPSSSLGTQTYICNVNHKPSNTKVDKKVEPKSCDKTHTCPPCPAPEEYWGPSVFLFPPKPKDTLMISRTPEVTCVVVDVSDEDPEVKFNWYVDGVEVHNAKTKPREEQYNATYRVVSVLTVLHQDWLNGKEYKCKVSNKALPAPIEKTISKAKGQPREPQVCTLPPSRDELTKNQVSLWCLVKGFYPSDIAVEWESNGQPENNYKTTPPVLDSDGSFFLYSKLTVDKSRWQQGNVFSCSVMHEALHNHYTQKSLSLSP
heavy 2: QDQLVQSGAEVKKPGASVKVSCKASGFNIKDTYIQWVRQAPGQGLEWMGRIDPLRKQTKYREKFEGRVTITADTSTNTAYMELSSLRSEDTAVYYCVRSGREFDYWGQGTLVTVSSASTKGPSVFPLAPSSKSTSGGTAALGCLVKDYFPEPVTVSWNSGALTSGVHTFPAVLQSSGLYSLSSVVTVPSSSLGTQTYICNVNHKPSNTKVDKKVEPKSCDKTHTCPPCPAPELLGGPSVFLFPPKPKDTLMISRTPEVTCVVVDVSHEDPEVKFNWYVDGVEVHNAKTKPREEQYNSTYRVVSVLTVLHQDWLNGKEYKCKVSNDALPMPIEETISKAKGQPREPQVYTLPPSRCELTKNQVSLSCAVKGFYPSDIAVEWESNGQPENNYKTTPPVLDSDGSFFLVSKLTVDKSRWQQGNVFSCSVMHEALHNHYTQKSLSLSP
light: DIQMTQSPSSLSASVGDRVTITCRASQDIHKYIAWYQQKPGQAPRLLIQYTSTLQPGVPSRFSGSGSGTDYTFTISSLQPEDIATYYCLQYEQLRTFGGGTKVEIKRTVAAPSVFIFPPSDEQLKSGTASVVCLLNNFYPREAKVQWKVDNALQSGNSQESVTEQDSKDSTYSLSSTLTLSKADYEKHKVYACEVTHQGLSSPVTKSFNRGEC
notes: anti-epiregulin heterodimerized IgG1; also called H240-Kn061 Y234E
B2: H240-Kn061/H240-Hl071/L73-k0 variant with Y235V in H240-Kn061 (antibody, human IgG1, kappa)
heavy 1: B1 heavy 1 with E233Y, Y234V
heavy 2: B1 heavy 2
light: B1 light
notes: anti-epiregulin heterodimerized IgG1; also called H240-Kn061 Y235V
B3: H240-Kn061/H240-Hl071/L73-k0 variant with Y235P in H240-Kn061 (antibody, human IgG1, kappa)
heavy 1: B1 heavy 1 with E233Y, Y234P
heavy 2: B1 heavy 2
light: B1 light
notes: anti-epiregulin heterodimerized IgG1; also called H240-Kn061 Y235P
B4: H240-Kn061/H240-Hl071/L73-k0 variant with Y235Q in H240-Kn061 (antibody, human IgG1, kappa)
heavy 1: B1 heavy 1 with E233Y, Y234Q
heavy 2: B1 heavy 2
light: B1 light
notes: anti-epiregulin heterodimerized IgG1; also called H240-Kn061 Y235Q
B5: H240-Kn061/H240-Hl071/L73-k0 variant with Y235I in H240-Kn061 (antibody, human IgG1, kappa)
heavy 1: B1 heavy 1 with E233Y, Y234I
heavy 2: B1 heavy 2
light: B1 light
notes: anti-epiregulin heterodimerized IgG1; also called H240-Kn061 Y235I
B6: GpH7-A5/GpH7-B3 variant S267_08L/GpL16-k0 (antibody, human IgG1, kappa)
heavy 1: not shown
heavy 2: not shown
light: DIVMTQSPLSLPVTPGEPASISCQASESLVHSNRNTYLHWYLQKPGQSPQLLIYKVSNRFSGVPDRFSGSGSGTDFTLKISRVEAEDVGVYYCSQNTHVPPTFGQGTKVEIERTVAAPSVFIFPPSDEQLKSGTASVVCLLNNFYPREAKVQWKVDNALQSGNSQESVTEQDSKDSTYSLSSTLTLSKADYEKHKVYACEVTHQGLSSPVTKSFNRGEC
notes: Heterodimerized antibody (He Ab) with the mutation in only one H chain; also called He Ab S267L
B7: GpH7-A5/GpH7-B3 variant H268_01G/GpL16-k0 (antibody, human IgG1, kappa)
heavy 1: not shown
heavy 2: not shown
light: B6 light
notes: Heterodimerized antibody (He Ab) with the mutation in only one H chain; also called He Ab H268G
B8: GpH7-A5/GpH7-B3 variant H268_05P/GpL16-k0 (antibody, human IgG1, kappa)
heavy 1: not shown
heavy 2: not shown
light: B6 light
notes: Heterodimerized antibody (He Ab) with the mutation in only one H chain; also called He Ab H268P
B9: GpH7-A5/GpH7-B3 variant H268_02A/GpL16-k0 (antibody, human IgG1, kappa)
heavy 1: not shown
heavy 2: not shown
light: B6 light
notes: Heterodimerized antibody (He Ab) with the mutation in only one H chain; also called He Ab H268A

The first test deals with T1, FcgRIIb (FcγRIIb) extracellular domain with C-terminal His tag (human, UniProt P31994 43-217).
T1 construct: extracellular domain; not shown: His tag attached to the C terminus
T1 sequence (looked up): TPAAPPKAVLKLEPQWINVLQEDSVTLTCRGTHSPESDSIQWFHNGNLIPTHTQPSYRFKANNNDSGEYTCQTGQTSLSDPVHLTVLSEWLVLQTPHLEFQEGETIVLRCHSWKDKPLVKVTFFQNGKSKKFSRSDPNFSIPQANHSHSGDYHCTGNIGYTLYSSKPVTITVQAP
The test is described as follows: SPR (Biacore); KD of H240-Kn061/H240-Hl071/L73-k0 divided by KD of the variant. In general terms: In SPR one partner is held on a chip, and binding of the other changes the refractive index at the surface.
For B1, the “relative KD” value turned out to be 0.5 ratio.
B2: the “relative KD” value amounted to 0.2 ratio.
Consider B3, for which the “relative KD” value was determined as 0.5 ratio.
Regarding B4, the “relative KD” value amounted to 0.1 ratio.
Take B5: the “relative KD” value was 0.2 ratio.

In a further test the target is T2, FcgRIIIa F (FcγRIIIa type F) extracellular domain with C-terminal His tag (human, UniProt P08637 17-208).
T2 construct: extracellular domain; also called FcγRIIIa F; 3aF; not shown: His tag attached to the C terminus
T2 sequence (P08637 17-208): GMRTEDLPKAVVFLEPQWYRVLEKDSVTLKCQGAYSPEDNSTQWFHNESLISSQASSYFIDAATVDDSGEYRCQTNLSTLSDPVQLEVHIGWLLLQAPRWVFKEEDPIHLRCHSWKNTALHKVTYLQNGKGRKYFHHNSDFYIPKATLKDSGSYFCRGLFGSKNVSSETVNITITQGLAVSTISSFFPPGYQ
The test is described as above.
On to B1, for which the “relative KD” value was 1.9 ratio.
B2: the “relative KD” value is 1.2 ratio.
B3: the “relative KD” value was determined as 1.1 ratio.
In the case of B4, the “relative KD” value came to 1 ratio.
Same read-out and setting: as for B5, the figure is 1.3 ratio.

The target in the next test is T3, FcgRIIIa V (FcγRIIIa type V) extracellular domain with C-terminal His tag (human, UniProt P08637 17-208).
T3 construct: extracellular domain; also called FcγRIIIa V; not shown: His tag attached to the C terminus
T3 sequence (P08637 17-208 F176V limits assumed): as the sequence (P08637 17-208) above, with F160V counted along it
The description is as above.
Regarding B1, the “relative KD” value is 1.6 ratio.
For the molecule B2, the “relative KD” value came to 1.3 ratio.
Regarding B3, the “relative KD” value is 1.5 ratio.
Take B4: the “relative KD” value came to 1.3 ratio.
On to B5, for which the “relative KD” value was found to be 1.6 ratio.

Another test deals with T4, FcγRIIIa extracellular domain with C-terminal His tag (human, UniProt P08637 17-208).
T4 construct: extracellular domain; also called FcgRIIIa; 3a; not shown: His tag attached to the C terminus
T4 sequence (P08637 17-208): as the sequence (P08637 17-208) above
The test is described as follows: SPR (Biacore); He/Con_3a (FcγRIIIa) divided by He/Con_2b (FcγRIIb).
As for B6, the “He_3a/2b (IIIa/IIb)” value amounted to 0.18 ratio.
As to B7, the “He_3a/2b (IIIa/IIb)” value worked out at 0.67 ratio.
As for B8, the “He_3a/2b (IIIa/IIb)” value was found to be 0.66 ratio.
Regarding B9, the “He_3a/2b (IIIa/IIb)” value is 0.73 ratio.

Another test addresses T4, FcγRIIIa extracellular domain with …. The test is described as follows: SPR (Biacore T100), antibody captured on antigen peptide chip, FcγR as analyte. The method, then: (§1) Analysis of interaction between objective antibody and the FcγR was carried out using Biacore T100 (GE Healthcare). HBS-EP+ (GE Healthcare) was used as the running buffer, and the measurement temperature was set to 25° C. Chips produced by immobilizing the antigen peptide by the amine coupling method to a Series S Sencor Chip CM5 (GE Healthcare), or alternatively, chips produced by allowing preliminarily biotinylated antigen peptides to interact with and immobilize onto a Series S Sensor Chip SA (certified) (GE Healthcare) were used. Antibodies of interest were captured onto an antigen peptide-immobilized chip, and allowed to interact to each FcγR diluted with running buffer. To regenerate and repeatedly use the chip, the antibodies captured on the chip were washed off by reacting 10 mM glycine-HCl, pH 1.5.
For B6, the He/Con_3a is 19.5 relative binding, GpH7-A5/GpH7-B3/GpL16-k0 = 100.
Regarding B7, the He/Con_3a is 96.7 relative binding, GpH7-A5/GpH7-B3/GpL16-k0 = 100.
Still for that read-out and setting: as for B8, the figure is 76.4 relative binding, GpH7-A5/GpH7-B3/GpL16-k0 = 100; as for B9, 122 relative binding, GpH7-A5/GpH7-B3/GpL16-k0 = 100.

The target in a further test is T5, FcγRIIb extracellular domain with C-terminal His tag (human, UniProt P31994 43-217).
T5 construct: extracellular domain; Soluble receptor expressed in FreeStyle293 cells, used as analyte in Biacore; also called FcgRIIb; 2b; not shown: His tag attached to the C terminus
T5 sequence (looked up): T1 sequence (looked up)
The description is as above. The method, then: as §1
In the case of B6, the He/Con_2b is 109 relative binding, GpH7-A5/GpH7-B3/GpL16-k0 = 100.
B7: the He/Con_2b was 144 relative binding, GpH7-A5/GpH7-B3/GpL16-k0 = 100.
As for B8, the He/Con_2b was 116 relative binding, GpH7-A5/GpH7-B3/GpL16-k0 = 100.
Consider B9, for which the He/Con_2b is 167 relative binding, GpH7-A5/GpH7-B3/GpL16-k0 = 100.

A further test has as its target T1, FcgRIIb (FcγRIIb) extracellular domain …. The test is described as follows: SPR (Biacore); KD of H240-Kn061/H240-Hl071/L73-k0 divided by KD of the variant. The source holds these as a separate data set. On the procedure: (§2) The antibodies were assessed for the binding to each FcgR. […] The resultant value was defined as relative KD, and used as an assessment indicator.
(§3) Analysis of interaction between objective antibody and the FcγR was carried out using Biacore T100 (GE Healthcare), Biacore T200, Biacore A100, and Biacore 4000. HBS-EP+ (GE Healthcare) was used as the running buffer, and the measurement temperature was set to 25° C. Chips produced by immobilizing the antigen peptide by the amine coupling method to a Series S sensor Chip CM5 (GE Healthcare), chips produced by allowing preliminarily biotinylated antigen peptides to interact with and immobilize onto a Series S Sensor Chip SA (certified) (GE Healthcare), chips produced by immobilizing Protein L (ACTIGEN, BioVision) to Series S Sencor Chip CM5 (GE Healthcare), or chips produced by immobilizing Protein A/G (Thermo Scientific) to Series S Sencor Chip CM5 (GE Healthcare) were used. Antibodies of interest were captured onto these chips, and allowed to interact to each FcγR diluted with running buffer.
Regarding B1, the “relative KD” value worked out at 0.5 ratio.
As for B2, the “relative KD” value was determined as 0.2 ratio.
With B3, the “relative KD” value worked out at 0.5 ratio.
Consider B4, for which the “relative KD” value was found to be 0.1 ratio.
For B5, the “relative KD” value was determined as 0.2 ratio.

The next test concerns the target T2, FcgRIIIa F (FcγRIIIa type F) …. Described as above. This is another data set of the same source. On the procedure: as §2, §3
Take B1: the “relative KD” value is 1.9 ratio.
As to B2, the “relative KD” value came out at 1.2 ratio.
Take B3: the “relative KD” value is 1.1 ratio.
In the case of B4, the “relative KD” value was determined as 1 ratio.
For the molecule B5, the “relative KD” value is 1.3 ratio.

A further test deals with T6, FcgRIIa R (FcγRIIa type R) extracellular domain with C-terminal His tag (human, UniProt P12318 34-217).
T6 construct: extracellular domain; also called FcγRIIa R; not shown: His tag attached to the C terminus
T6 sequence (looked up): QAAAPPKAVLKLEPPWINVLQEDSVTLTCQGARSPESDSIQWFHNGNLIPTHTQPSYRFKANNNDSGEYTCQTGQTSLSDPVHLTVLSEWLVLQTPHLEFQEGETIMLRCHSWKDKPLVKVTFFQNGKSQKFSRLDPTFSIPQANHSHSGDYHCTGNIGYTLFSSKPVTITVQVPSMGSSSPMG
The description is as above. The method, then:
as §2, §3
B1: the “relative KD” value amounted to 1.4 ratio.
Still for that read-out and setting: as for B2, the figure is 0.5 ratio; as for B3, 0.6 ratio; as for B4, 0.8 ratio.
Turning to B5, the “relative KD” value was 0.7 ratio.

A further test concerns the target T7, FcgRIIa H (FcγRIIa type H) extracellular domain with C-terminal His tag (human, UniProt P12318 34-217).
T7 construct: extracellular domain; also called FcγRIIa H; not shown: His tag attached to the C terminus
T7 sequence (looked up): T6 sequence (looked up) with R134H
The test is described as above. On the procedure: as §2, §3
On to B1, for which the “relative KD” value came out at 0.7 ratio.
Regarding B2, the “relative KD” value stood at 0.4 ratio.
For B3, the “relative KD” value amounted to 0.4 ratio.
On to B4, for which the “relative KD” value is 0.4 ratio.
Turning to B5, the “relative KD” value amounted to 0.4 ratio.

The target of the next test is T3, FcgRIIIa V (FcγRIIIa type V) …. The test is described as above. The source holds these as a separate data set. The method, then: as §2, §3
On to B1, for which the “relative KD” value was found to be 1.6 ratio.
As for B2, the “relative KD” value was determined as 1.3 ratio.
For B3, the “relative KD” value was found to be 1.5 ratio.
For B4, the “relative KD” value was found to be 1.3 ratio.
Regarding B5, the “relative KD” value is 1.6 ratio.

The record behind these values is patent US20150344570A1 (published 2015).
